Laboratory results from doi:10.1101/2024.11.11.622897.

Target: T1, DdaA (A. baumannii), AbDdaA (Acinetobacter baumannii ATCC 17978, UniProt V5VBS3 1-335)
T1 sequence: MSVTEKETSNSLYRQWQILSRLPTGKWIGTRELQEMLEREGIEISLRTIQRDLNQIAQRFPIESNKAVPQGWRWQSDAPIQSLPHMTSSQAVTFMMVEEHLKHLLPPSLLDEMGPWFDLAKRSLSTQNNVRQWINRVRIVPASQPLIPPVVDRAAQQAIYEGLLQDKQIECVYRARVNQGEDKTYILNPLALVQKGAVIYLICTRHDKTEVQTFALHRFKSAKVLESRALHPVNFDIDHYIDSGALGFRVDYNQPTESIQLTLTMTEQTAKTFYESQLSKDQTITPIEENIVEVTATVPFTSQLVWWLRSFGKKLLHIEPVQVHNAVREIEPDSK
Assay: EMSA

B1: recA promoter motif WT (AR-DDRM) (dsDNA)
DNA 1: TTTCCGGTCTGGGCGACACAATATGACGTGTAATTTTAACC
DNA 2: GGTTAAAATTACACGTCATATTGTGTCGCCCAGACCGGAAA
B1: binds.
